Patent WO2011147762A2

What was measured:
[1] = target: ED-B fibronectin antigen protein (recombinant), bound to CNBr activated sepharose 4B (UniProt P02751); assay: ED-B sepharose column, % of total radioactivity bound; Study A; trolox 5 mg/mL; day 0
[2] = target: ED-B fibronectin antigen protein (recombinant), bound to CNBr activated sepharose 4B (UniProt P02751); assay: ED-B sepharose column, % of total radioactivity bound; Study A; trolox 5 mg/mL; day 1
[3] = target: ED-B fibronectin antigen protein (recombinant), bound to CNBr activated sepharose 4B (UniProt P02751); assay: ED-B sepharose column, % of total radioactivity bound; Study A; maltose 5 mg/mL; day 0
[4] = target: ED-B fibronectin antigen protein (recombinant), bound to CNBr activated sepharose 4B (UniProt P02751); assay: ED-B sepharose column, % of total radioactivity bound; Study A; maltose 5 mg/mL; day 1
[5] = target: ED-B fibronectin antigen protein (recombinant), bound to CNBr activated sepharose 4B (UniProt P02751); assay: ED-B sepharose column, % of total radioactivity bound; Study A; maltose 5 mg/mL; day 7
[6] = target: ED-B fibronectin antigen protein (recombinant), bound to CNBr activated sepharose 4B (UniProt P02751); assay: ED-B sepharose column, % of total radioactivity bound; Study A; maltose 10 mg/mL; day 5
[7] = target: ED-B fibronectin antigen protein (recombinant), bound to CNBr activated sepharose 4B (UniProt P02751); assay: ED-B sepharose column, % of total radioactivity bound; Study A; maltose 25 mg/mL; day 5
[8] = target: ED-B fibronectin antigen protein (recombinant), bound to CNBr activated sepharose 4B (UniProt P02751); assay: ED-B sepharose column, % of total radioactivity bound; Study A; maltose 50 mg/mL; day 1
[9] = target: ED-B fibronectin antigen protein (recombinant), bound to CNBr activated sepharose 4B (UniProt P02751); assay: ED-B sepharose column, % of total radioactivity bound; Study A; maltose 50 mg/mL; day 5
[10] = target: ED-B fibronectin antigen protein (recombinant), bound to CNBr activated sepharose 4B (UniProt P02751); assay: ED-B sepharose column, % of total radioactivity bound; Study A; inositol 10 mg/mL; day 0
[11] = target: ED-B fibronectin antigen protein (recombinant), bound to CNBr activated sepharose 4B (UniProt P02751); assay: ED-B sepharose column, % of total radioactivity bound; Study A; inositol 10 mg/mL; day 1
[12] = target: ED-B fibronectin antigen protein (recombinant), bound to CNBr activated sepharose 4B (UniProt P02751); assay: ED-B sepharose column, % of total radioactivity bound; Study A; inositol 25 mg/mL; day 0
[13] = target: ED-B fibronectin antigen protein (recombinant), bound to CNBr activated sepharose 4B (UniProt P02751); assay: ED-B sepharose column, % of total radioactivity bound; Study A; inositol 25 mg/mL; day 3
[14] = target: ED-B fibronectin antigen protein (recombinant), bound to CNBr activated sepharose 4B (UniProt P02751); assay: ED-B sepharose column, % of total radioactivity bound; Study A; methionine 5 mg/mL; day 0
[15] = target: ED-B fibronectin antigen protein (recombinant), bound to CNBr activated sepharose 4B (UniProt P02751); assay: ED-B sepharose column, % of total radioactivity bound; Study A; methionine 5 mg/mL; day 3
[16] = target: ED-B fibronectin antigen protein (recombinant), bound to CNBr activated sepharose 4B (UniProt P02751); assay: ED-B sepharose column, % of total radioactivity bound; Study B3; inositol 10 mg/mL; day 7
[17] = target: ED-B fibronectin antigen protein (recombinant), bound to CNBr activated sepharose 4B (UniProt P02751); assay: ED-B sepharose column, % of total radioactivity bound; Study A; methionine 10 mg/mL; day 1
[18] = target: ED-B fibronectin antigen protein (recombinant), bound to CNBr activated sepharose 4B (UniProt P02751); assay: ED-B sepharose column, % of total radioactivity bound; Study B3; ascorbic acid 25 mg/mL; day 7
[19] = target: ED-B fibronectin antigen protein (recombinant), bound to CNBr activated sepharose 4B (UniProt P02751); assay: ED-B sepharose column, % of total radioactivity bound; Study A; sodium thiosulfate 5 mg/mL; day 3
[20] = target: ED-B fibronectin antigen protein (recombinant), bound to CNBr activated sepharose 4B (UniProt P02751); assay: ED-B sepharose column, % of total radioactivity bound; Study A; sodium thiosulfate 5 mg/mL; day 5
[21] = target: ED-B fibronectin antigen protein (recombinant), bound to CNBr activated sepharose 4B (UniProt P02751); assay: ED-B sepharose column, % of total radioactivity bound; Study A; sodium thiosulfate 5 mg/mL; day 7
[22] = target: ED-B fibronectin antigen protein (recombinant), bound to CNBr activated sepharose 4B (UniProt P02751); assay: ED-B sepharose column, % of total radioactivity bound; Study A; sodium thiosulfate 10 mg/mL; day 5
[23] = target: ED-B fibronectin antigen protein (recombinant), bound to CNBr activated sepharose 4B (UniProt P02751); assay: ED-B sepharose column, % of total radioactivity bound; Study A; sodium thiosulfate 10 mg/mL; day 7
[24] = target: ED-B fibronectin antigen protein (recombinant), bound to CNBr activated sepharose 4B (UniProt P02751); assay: ED-B sepharose column, % of total radioactivity bound; Study A; sodium thiosulfate 25 mg/mL; day 0
[25] = target: ED-B fibronectin antigen protein (recombinant), bound to CNBr activated sepharose 4B (UniProt P02751); assay: ED-B sepharose column, % of total radioactivity bound; Study A; sodium thiosulfate 25 mg/mL; day 1
[26] = target: ED-B fibronectin antigen protein (recombinant), bound to CNBr activated sepharose 4B (UniProt P02751); assay: ED-B sepharose column, % of total radioactivity bound; Study B3; no-excipient control (PBS); day 3
[27] = target: ED-B fibronectin antigen protein (recombinant), bound to CNBr activated sepharose 4B (UniProt P02751); assay: ED-B sepharose column, % of total radioactivity bound; Study A; no-excipient control (saline); day 0
[28] = target: ED-B fibronectin antigen protein (recombinant), bound to CNBr activated sepharose 4B (UniProt P02751); assay: ED-B sepharose column, % of total radioactivity bound; Study A; no-excipient control (saline); day 1

Chain of UniProt P02751 (P02751 1266-1356 limits assumed): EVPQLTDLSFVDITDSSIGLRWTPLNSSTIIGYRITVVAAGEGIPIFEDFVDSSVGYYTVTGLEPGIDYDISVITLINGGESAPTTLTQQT
Chain of 131I L19-SIP (radioiodinated L19 SIP homodimer) (chain): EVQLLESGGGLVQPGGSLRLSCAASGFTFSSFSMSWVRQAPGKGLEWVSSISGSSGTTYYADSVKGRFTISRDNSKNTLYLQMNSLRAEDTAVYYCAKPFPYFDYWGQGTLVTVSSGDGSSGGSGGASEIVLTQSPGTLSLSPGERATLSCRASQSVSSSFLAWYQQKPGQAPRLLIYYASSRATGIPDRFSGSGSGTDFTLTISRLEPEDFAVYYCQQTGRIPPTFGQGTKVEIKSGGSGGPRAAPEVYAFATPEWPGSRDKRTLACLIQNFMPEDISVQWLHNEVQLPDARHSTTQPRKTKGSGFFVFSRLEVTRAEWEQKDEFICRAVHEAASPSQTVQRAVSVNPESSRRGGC
Chain of 131I L19-SIP (radioiodinated L19 SIP homodimer) (chain): as above

## 131I L19-SIP (radioiodinated L19 SIP homodimer)
[1]
  Immunoreactivity (%): 94.6%
[2]
  Immunoreactivity (%): 84.8%
[3]
  Immunoreactivity (%): 89.1%
[4]
  Immunoreactivity (%): 84.4%
[5]
  Immunoreactivity (%): 50%
[6]
  Immunoreactivity (%): 57.2%
[7]
  Immunoreactivity (%): 57.7%
[8]
  Immunoreactivity (%): 85.9%
[9]
  Immunoreactivity (%): 55.6%
[10]
  Immunoreactivity (%): 93.4%
[11]
  Immunoreactivity (%): 89.5%
[12]
  Immunoreactivity (%): 94.1%
[13]
  Immunoreactivity (%): 68.5%
[14]
  Immunoreactivity (%): 96.7%
[15]
  Immunoreactivity (%): 72.9%
[16]
  Immunoreactivity (IR) (%): 61.9%
[17]
  Immunoreactivity (%): 88.1%
[18]
  Immunoreactivity (IR) (%): 55.3%
[19]
  Immunoreactivity (%): 83.5%
[20]
  Immunoreactivity (%): 79.4%
[21]
  Immunoreactivity (%): 70%
[22]
  Immunoreactivity (%): 81.3%
[23]
  Immunoreactivity (%): 78%
[24]
  Immunoreactivity (%): 96.4%
[25]
  Immunoreactivity (%): 95%
[26]
  Immunoreactivity (IR) (%): 68.3%
[27]
  Immunoreactivity (%): 94.3%
[28]
  Immunoreactivity (%): 81.6%
